Source: patent publication US20160264662A1 (US Dept. of Health and Human Services, published 2016)

Target: T1, human TEM8 (hTEM8) expressed on CHO or 293 cells (human, UniProt Q9H6X2 33-564)
T1 construct: also called CHO TEM8
Assay: cell-based ELISA-type titration of m825-MMAE on CHO cells overexpressing TEM8, with TEM8-negative CHO cells as control; absorbance at 450 nm against Log (ng/well)

T1 sequence (Q9H6X2 33-564 limits assumed): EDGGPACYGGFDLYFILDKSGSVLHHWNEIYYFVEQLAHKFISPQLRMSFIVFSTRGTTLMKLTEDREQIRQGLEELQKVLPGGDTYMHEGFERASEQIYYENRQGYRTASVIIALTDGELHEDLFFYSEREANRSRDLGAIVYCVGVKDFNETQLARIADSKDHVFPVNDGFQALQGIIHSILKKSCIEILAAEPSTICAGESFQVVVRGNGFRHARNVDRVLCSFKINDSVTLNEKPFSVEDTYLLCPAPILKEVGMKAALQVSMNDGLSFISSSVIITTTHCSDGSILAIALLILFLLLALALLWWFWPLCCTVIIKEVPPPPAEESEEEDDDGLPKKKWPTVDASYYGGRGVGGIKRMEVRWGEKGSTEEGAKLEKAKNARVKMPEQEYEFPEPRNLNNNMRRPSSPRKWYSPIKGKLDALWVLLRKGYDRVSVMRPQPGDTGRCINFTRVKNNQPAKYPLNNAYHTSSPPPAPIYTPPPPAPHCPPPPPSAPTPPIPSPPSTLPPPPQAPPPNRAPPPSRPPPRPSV

B1: m825-MMAE conjugate (m825 antibody in human IgG1 format conjugated to MMAE) (other)
VH: QVQLVQSGAEVKKPGTSVKVSCKVPGYTFSSYAISWVRQAPGQGLEWMGGIIPIFGTTNYAQKFQGRVTITGEESTSTVYMELSSLRSEDTAVYYCARDTDYMFDYWGQGTLVTVSS
VL: SSELTQDPVVSVALGETVSITCQGDNLRDFYASWYQQKPGQAPLLVMYGKNRRPSGIPDRFSGSTSGNTLSLTITGAQAEDEADYYCSSRDNSKHVVFGGGTKVTVL
modifications: MMAE with stretcher unit, Val-Cit peptide cleavage site and spacer, attached to thiol groups formed by partial reduction of inter-chain disulfide bonds (positions not stated)
notes: also called anti-TEM8-MMAE
Q: B1 was tested. Which “EC50 (read off the curve)” value did it give?
A: ~2 ng/well
